One experiment has as its target HLA-B*40:01. As to the kind of experiment: IEDB peptide-MHC binding, purified MHC/competitive/radioactivity; filed as Kd, often an IC50 or EC50 that approximates it; ≥ and ≤ were set here for values at or beyond the usual limits of such assays.
The target of the next experiment is HLA-B*44:02. Described as above.
A further experiment addresses HLA-B*44:03. Described as above.
A further experiment addresses HLA-B*58:01. Kind of experiment: IEDB peptide-MHC binding, purified MHC/direct/fluorescence; filed as Kd, often an IC50 or EC50 that approximates it; ≥ and ≤ were set here for values at or beyond the usual limits of such assays. The settings on record: source organism: Yersinia pestis Antiqua.
The target in a further experiment is HLA-B*57:01. The description is as above.
The target in a further experiment is HLA-A*23:01. Kind of experiment: IEDB peptide-MHC binding, purified MHC/competitive/radioactivity; filed as Kd, often an IC50 or EC50 that approximates it; ≥ and ≤ were set here for values at or beyond the usual limits of such assays. The settings on record: source organism: Dengue virus 2 Jamaica/1409/1983.
A further experiment deals with HLA-A*24:02. The experiment is described as above.
In a further experiment the target is HLA-A*01:01. Described as above.
In a further experiment the target is HLA-A*26:01. The description is as above.
In experiment [1] the target is HLA-B*15:01. The description is as above.
Experiment [2] has as its target HLA-B*15:01. As to the kind of experiment: IEDB peptide-MHC binding, purified MHC/competitive/fluorescence; filed as Kd, often an IC50 or EC50 that approximates it; ≥ and ≤ were set here for values at or beyond the usual limits of such assays.
Another experiment addresses HLA-B*53:01. Kind of experiment: IEDB peptide-MHC binding, purified MHC/competitive/radioactivity; filed as Kd, often an IC50 or EC50 that approximates it; ≥ and ≤ were set here for values at or beyond the usual limits of such assays. Conditions: source organism: Dengue virus 4 Philippines/H241/1956.
The target in another experiment is HLA-B*46:01. As to the kind of experiment: IEDB peptide-MHC binding, purified MHC/competitive/fluorescence; filed as Kd, often an IC50 or EC50 that approximates it; ≥ and ≤ were set here for values at or beyond the usual limits of such assays. Conditions: source organism: Influenza A virus.
The target in another experiment is HLA-A*30:01. As to the kind of experiment: IEDB peptide-MHC binding, purified MHC/competitive/radioactivity; filed as Kd, often an IC50 or EC50 that approximates it; ≥ and ≤ were set here for values at or beyond the usual limits of such assays.
A further experiment addresses HLA-A*30:02. The experiment is described as above.
The target in another experiment is HLA-A*03:01. As to the kind of experiment: IEDB peptide-MHC binding, purified MHC/direct/fluorescence; filed as Kd, often an IC50 or EC50 that approximates it; ≥ and ≤ were set here for values at or beyond the usual limits of such assays. Conditions: source organism: SARS-CoV1.
A further experiment concerns the target HLA-A*02:01. The experiment is described as above. Conditions: source organism: SARS-CoV1.
Another experiment concerns the target HLA-A*31:01. The experiment is described as above. Conditions: source organism: SARS-CoV1.
Experiment [3] has as its target HLA-B*15:01. The description is as above. Conditions: source organism: SARS-CoV1.
[4] abbreviates: source organism: Dengue virus 2 Jamaica/1409/1983.
[5] abbreviates: source organism: Dengue virus 1 Singapore/S275/1990.
The mark [6] stands for this setting: source organism: Vaccinia virus WR.
Where [7] appears, read: source organism: Dengue virus 4 Philippines/H241/1956.
Where [8] appears, read: source organism: Dengue virus 3 Martinique/1243/1999.

A value given as a limit tells only on which side of the number the result lay.

As for AEHTGREIV, the dissociation constant (Kd) (as a rule, a measure of binding affinity in units of concentration) with HLA-B*40:01 (setting [4]) was determined as 62.4 nM.
On to AENHHHATML, for which the Kd with HLA-B*40:01 (setting [5]) was found to be 39.9 nM; with HLA-B*44:02 (setting [5]), 55.7 nM; with HLA-B*44:03 (setting [5]), 189 nM.
For ASSALDAHF, the Kd was determined as 4.4 nM with HLA-B*58:01 and 396 nM in the experiment with HLA-B*57:01 (source organism: Yersinia pestis Antiqua).
For AWLVHRQWF, the Kd in the experiment with HLA-A*23:01 was 340 nM; with HLA-A*24:02 (setting [4]), 164 nM.
Take EAEPPFGDSY: the dissociation constant Kd with HLA-A*01:01 (setting [4]) was found to be 1770 nM; with HLA-A*26:01 (setting [4]) it was 1300 nM.
On to EFFLMVLLI, for which the Kd with HLA-A*24:02 (source organism: Dengue virus 1 Brazil/97-11/1997) is not below 40100 nM.
On to EIKTGISSF, for which the equilibrium dissociation constant (Kd) with HLA-B*15:01 [1] (setting [6]) was found to be 89.9 nM.
On the same count and under the same terms, with EISSTFNRF the figure was 131 nM; with EQKAYVPAM, 0.773 nM.
In the case of FEEYKRSGI, the dissociation constant Kd in the experiment with HLA-B*40:01 (setting [7]) worked out at 1290 nM.
The sequence FLCDDTITY gave a dissociation constant (Kd) in the experiment with HLA-B*15:01 [2] (source organism: West Nile virus) of 298 nM.
As for FPQSNSPIE, in the experiment with HLA-B*53:01, the dissociation constant (Kd) is 243 nM.
Regarding FQNVNKITY, the dissociation constant (Kd) with HLA-B*15:01 [2] (source organism: Influenza A virus) worked out at 154 nM; with HLA-B*46:01, 3000 nM.
Regarding GECIKTCVF, the dissociation constant Kd in the experiment with HLA-B*15:01 [1] (setting [6]) turned out to be 115 nM.
For GEHKKLAEAI, the Kd with HLA-B*40:01 (setting [4]) is 53.7 nM.
For GGSLVRCPLS, the Kd in the experiment with HLA-A*30:01 (setting [7]) was determined as 2430 nM.
As to GIFPYSIPAT, in the experiment with HLA-A*30:01 (source organism: Dengue virus 3 Sri Lanka/1266/2000), the Kd is not below 70400 nM.
As for GTIMVSEHF, the Kd with HLA-B*15:01 [1] (setting [6]) was found to be 57.4 nM.
For the sequence GVPLLAIGCY, the values for the Kd in the experiment with HLA-A*26:01 (setting [4]) and with HLA-A*30:02 (setting [4]) were 128 nM and 3350 nM, respectively.
HEWMTTEDM: the Kd was 381 nM with HLA-B*40:01 (setting [4]), 1960 nM in the experiment with HLA-B*44:02 (setting [4]) and 1530 nM with HLA-B*44:03 (setting [4]).
As to HTSEHGGRAY, the equilibrium dissociation constant (Kd) with HLA-A*01:01 (setting [8]) is 1030 nM; with HLA-A*26:01 (setting [8]), 163 nM; in the experiment with HLA-A*30:02 (setting [8]) it was not below 44100 nM; in the experiment with HLA-B*15:01 [1] (setting [8]) it was 146 nM.
Consider HVKAFYKFI, for which, in the experiment with HLA-A*30:01 (setting [6]), the Kd was found to be 0.346 nM.
In the case of ISQHNHRPGY, the results for the Kd in the experiment with HLA-A*30:01 (setting [8]), with HLA-A*01:01 (setting [8]) and with HLA-A*30:02 (setting [8]) were 12.2 nM, 15000 nM and 99.8 nM, respectively.
Regarding IWYMWLGARF, the equilibrium dissociation constant (Kd) was 8.27 nM with HLA-A*23:01 and 6.14 nM with HLA-A*24:02 (setting [4]).
As for KCLNIMLGK, the equilibrium dissociation constant (Kd) with HLA-A*30:01 (source organism: Mammarenavirus brazilense) is 24.9 nM.
Sequence KIMKVVNRW gave a dissociation constant (Kd) with HLA-B*57:01 (source organism: Yellow fever virus) of 131 nM.
Consider KMSEYKGPV, for which the Kd with HLA-A*03:01 worked out at 10600 nM; with HLA-A*02:01, 1520 nM; in the experiment with HLA-A*31:01 it was 2090 nM; with HLA-B*15:01 [3], 6670 nM.
In the case of KNRNSKRSV, the Kd in the experiment with HLA-A*30:01 (setting [6]) was determined as 32.7 nM.
Take KTKRYLPAI: the equilibrium dissociation constant (Kd) with HLA-A*30:01 (setting [4]) was determined as 100 nM.
As for KVRKIISKI, the dissociation constant Kd with HLA-A*30:01 (setting [6]) is 27.2 nM.
For the sequence KVVRLTPQV, the Kd with HLA-A*30:01 (setting [6]) was 178 nM.
On the same count and under the same terms, with KYKQSNTNK the figure was 103 nM.
As for LAIPATEFF, the Kd in the experiment with HLA-B*15:01 [1] (setting [6]) was 4.16 nM.
As for LAPFNFLVF, in the experiment with HLA-B*15:01 [1] (setting [6]), the Kd was 135 nM.
With LDPIPYDPKF, the Kd with HLA-A*24:02 (setting [4]) is 2420 nM.
For the sequence LGFDVVAYF, in the experiment with HLA-B*15:01 [1] (source organism: Vaccinia virus Copenhagen), the dissociation constant (Kd) turned out to be 67.3 nM.
